Positions count from the first letter of the chain named.

The results in this text go back to US20250027068.

First the molecules themselves.
B1: PRT-13 (protein)
chain: MANQEIRYSEETPYHVTSVWTKGVTPPANFTQGEDVFHAPYKANQGWYDITKTFNGKDDLLCGAATAGNMLHWWFDQNKDQIEAYLKEHPEKQKINFNGEQMFDVKEAIDTKDDQTNSKLFEYFKEKAFPYLSTKHLGVFPDHVLDMFINGYRLSLTNHGPTPVKEGSKDPRGGIFDAVFTRGDQSKLLTSRHDFKEKTLKEISDLIKQELTEGKALALSHTYANVRINHVINLWGADFDSNGNLEAIYVTDSDSNASIGMKKYFVGVNSAGKVAISAKEIEDDNIGAQVLGLFTLSTGQDIWNQTN
B2: PRT-143 (protein)
chain: MANQEIRYSEVTPYHITSVWTKGVTPPANFTQGEDVFHAPYVANQGWYDITKTFNGKDDLLCGAATAGNMLHWWFDQNKDQIKRYLEEHPEKQKINFNGEQMFDVKEAIDTKNHQLDSKLFEYFKEKAFPYLSTKHLGVFPDHVIDMFINGYRLSLTNHGPTPVKEGSKDPRGGIFDAVFTRGDQSKLLTSRHDFKEKTLNEISQLIKQELTEGKALGLSHTYANVRINHVINLWGADFDAEGNLEAIYVTDSDSNASIGMKKYFVGVNSAGKVAISAKEIKEDNIGAQVLGLFTLSTGQDSWNQTN
B3: PRT-144 (protein)
chain: B2 chain with E202D, T212Q, E213S, V268K
B4: PRT-146 (protein)
chain: B2 chain with T17K, S18T, E202D, T212Q, E213S, V268K
B5: PRT-145 (protein)
chain: B2 chain with E202T, T212Q, E213S, V268K
B6: PRT-147 (protein)
chain: B2 chain with T17K, S18I, E202D, T212Q, E213S, V268K
B7: PRT-148 (protein)
chain: MANQEIRYSEVTPYHVTSVWTKGVTPPANFTQGEDVFHAPYVANQGWYDITKTFNGKDDLLCGAATAGNMLHWWFDQNKDQIKRYLEEHPEKQKINFNGEQMFDVKEAIDTKNHQLDSKLFEYFKEKAFPYLSTKHLGVFPDHVIDMFINGYRLSLTNHGPTPVKRQSKDPRGGIFDAVFTRGDQSKLLTSRHDFKEKNLKEISDLIKKELTEGKALGLSHTYANVRINHVINLWGADFDSNGNLKAIYVTDSDSNASIGMKKYFVGVNSAGKVAISAKEIKEDNIGAQVLGLFTLSTGQDSWNKTN
B8: PRT-151 (protein)
chain: B7 chain with E91D, S168T, T181G, Q185S, S186T, D301K
B9: PRT-152 (protein)
chain: B7 chain with D80T, K83E, E87K, E88K, R166E, Q167G, Q300K, N304E
B10: PRT-149 (protein)
chain: B7 chain with S168T, T181G, S186T, D301K
B11: PRT-150 (protein)
chain: B7 chain with S168E, T181G, S186T, D301K
B12: PRT-12 (protein)
chain: MANQEIRYSEVTPYHVTSVWTKGVTPPADFTQGEDVFHAPYKANQGWYDITKTFNGKDDLLCGAATAGNMLHWWFDQNKDQIERYLKEHPEKQKINFNGEQMFDVKEAIDTKDSQTDSKLFEYFKEKAFPYLSTKHLGVFPDHVIDMFINGYRLSLTNHGPTPVKRGSKDPRGGFFDAVFTRGDQSKLLTSRHDFKEKTLNEISDLIKKELTEGKALGLSHTYANVRINHVINLWGADFDSNGNLEAIYVTDSDSNASIGMKKYFVGVNSAGKVAISAKEIKEDNIGAQVLGLFTLSTGQDIWEQTN
B13: PRT-136 (protein)
chain: MRNATEAYAKEVPHQITSVWTKGVTPLTPEQFRYNNEDVIHAPYLAHQGWYDITKAFDGKDNLLCGAATAGNMLHWWFDQNKTEIEAYLSKHPEKQKIIFNNQELFDLKAAIDTKDSQTNSQLFNYFRDKAFPNLSARQLGVMPDLVLDMFINGYYLNVFKTQSTDVNRPYQDKDKRGGIFDAVFTRGDQTTLLTARHDLKNKGLNDISTIIKQELTEGRALALSHTYANVSISHVINLWGADFNAEGNLEAIYVTDSDANASIGMKKYFVGVNAHGHVAISAKKIEGENIGAQVLGLFTLSSGKDIWQKLS
B14: PRT-140 (protein)
chain: B13 chain with D58N, V273I
B15: PRT-142 (protein)
chain: B13 chain with I40F, V273I
B16: PRT-139 (protein)
chain: B13 chain with H47N, V273I
B17: PRT-137 (protein)
chain: B13 chain with V273I, H278K
B18: PRT-138 (protein)
chain: B13 chain with L27P, V273I
B19: PRT-141 (protein)
chain: B13 chain with V273I, H276A

For this data set, the target named is pooled human IgG.
B1 yielded an Enzyme Activity Endpoint Assay: Fab′2 of 2 ng/µL, an Enzyme Activity Endpoint Assay: Fc of 74 ng/µL, an Enzyme Activity Endpoint Assay: IgG of 12 ng/µL and an Enzyme Activity Endpoint Assay: scIgG of 66 ng/µL.
On to B2, for which the Enzyme Activity Endpoint Assay (purified): Fab'2 came to 576 ng/µL, the Enzyme Activity Endpoint Assay (purified): Fc stood at 170 ng/µL, the Enzyme Activity Endpoint Assay (purified): IgG came to 0 ng/µL and the Enzyme Activity Endpoint Assay (purified): scIgG worked out at 0 ng/µL.
Regarding B3, the Enzyme Activity Endpoint Assay (purified): Fab'2 came to 562 ng/µL, the Enzyme Activity Endpoint Assay (purified): Fc is 151 ng/µL, the Enzyme Activity Endpoint Assay (purified): IgG came to 0 ng/µL and the Enzyme Activity Endpoint Assay (purified): scIgG came out at 26 ng/µL.
The like results for B4 were, in that order, 672 ng/µL, 215 ng/µL, 0 ng/µL and 0 ng/µL.
The corresponding values for B5 are 735 ng/µL, 207 ng/µL, 0 ng/µL and 0 ng/µL.
For the protein B6, the Enzyme Activity Endpoint Assay (purified): Fab'2 came out at 723 ng/µL, the Enzyme Activity Endpoint Assay (purified): Fc is 206 ng/µL, the Enzyme Activity Endpoint Assay (purified): IgG is 0 ng/µL and the Enzyme Activity Endpoint Assay (purified): scIgG was 0 ng/µL.
B7 displayed an Enzyme Activity Endpoint Assay (purified): Fab'2 of 764 ng/µL, an Enzyme Activity Endpoint Assay (purified): Fc of 203 ng/µL, an Enzyme Activity Endpoint Assay (purified): IgG of 0 ng/µL and an Enzyme Activity Endpoint Assay (purified): scIgG of 0 ng/µL.
As for B8, the Enzyme Activity Endpoint Assay (purified): Fab'2 was 521 ng/µL, the Enzyme Activity Endpoint Assay (purified): Fc came out at 137 ng/µL, the Enzyme Activity Endpoint Assay (purified): IgG was 0 ng/µL and the Enzyme Activity Endpoint Assay (purified): scIgG was found to be 0 ng/µL.
B9 gave an Enzyme Activity Endpoint Assay (purified): Fab'2 of 614 ng/µL, an Enzyme Activity Endpoint Assay (purified): Fc of 158 ng/µL, an Enzyme Activity Endpoint Assay (purified): IgG of 0 ng/µL and an Enzyme Activity Endpoint Assay (purified): scIgG of 0 ng/µL.
Turning to B10, the Enzyme Activity Endpoint Assay (purified): Fab'2 came out at 831 ng/µL, the Enzyme Activity Endpoint Assay (purified): Fc is 0 ng/µL, the Enzyme Activity Endpoint Assay (purified): IgG amounted to 0 ng/µL and the Enzyme Activity Endpoint Assay (purified): scIgG was determined as 0 ng/µL.
As to B11, the Enzyme Activity Endpoint Assay (purified): Fab'2 turned out to be 612 ng/µL, the Enzyme Activity Endpoint Assay (purified): Fc came out at 161 ng/µL, the Enzyme Activity Endpoint Assay (purified): IgG is 0 ng/µL and the Enzyme Activity Endpoint Assay (purified): scIgG is 0 ng/µL.
On to B12, for which the Enzyme Activity Endpoint Assay: Fab′2 amounted to 47 ng/µL, the Enzyme Activity Endpoint Assay: Fc stood at 122 ng/µL, the Enzyme Activity Endpoint Assay: IgG was 16 ng/µL and the Enzyme Activity Endpoint Assay: scIgG turned out to be 14 ng/µL.
Consider B13, for which the Enzyme Activity Endpoint Assay (purified): Fab'2 came to 635 ng/µL, the Enzyme Activity Endpoint Assay (purified): Fc worked out at 160 ng/µL, the Enzyme Activity Endpoint Assay (purified): IgG is 0 ng/µL and the Enzyme Activity Endpoint Assay (purified): scIgG worked out at 0 ng/µL.
Consider B14, for which the Enzyme Activity Endpoint Assay (purified): Fab'2 was found to be 755 ng/µL, the Enzyme Activity Endpoint Assay (purified): Fc amounted to 213 ng/µL, the Enzyme Activity Endpoint Assay (purified): IgG is 0 ng/µL and the Enzyme Activity Endpoint Assay (purified): scIgG was 0 ng/µL.
In the case of B15, the Enzyme Activity Endpoint Assay (purified): Fab'2 turned out to be 589 ng/µL, the Enzyme Activity Endpoint Assay (purified): Fc is 135 ng/µL, the Enzyme Activity Endpoint Assay (purified): IgG worked out at 0 ng/µL and the Enzyme Activity Endpoint Assay (purified): scIgG is 0 ng/µL.
The protein B16 came in with an Enzyme Activity Endpoint Assay (purified): Fab'2 of 733 ng/µL, an Enzyme Activity Endpoint Assay (purified): Fc of 213 ng/µL, an Enzyme Activity Endpoint Assay (purified): IgG of 0 ng/µL and an Enzyme Activity Endpoint Assay (purified): scIgG of 0 ng/µL.
On to B17, for which the Enzyme Activity Endpoint Assay (purified): Fab'2 was 662 ng/µL, the Enzyme Activity Endpoint Assay (purified): Fc stood at 198 ng/µL, the Enzyme Activity Endpoint Assay (purified): IgG is 0 ng/µL and the Enzyme Activity Endpoint Assay (purified): scIgG worked out at 0 ng/µL.
Take B18: the Enzyme Activity Endpoint Assay (purified): Fab'2 was found to be 563 ng/µL, the Enzyme Activity Endpoint Assay (purified): Fc was found to be 215 ng/µL, the Enzyme Activity Endpoint Assay (purified): IgG was found to be 0 ng/µL and the Enzyme Activity Endpoint Assay (purified): scIgG turned out to be 144 ng/µL.
On to B19, for which the Enzyme Activity Endpoint Assay (purified): Fab'2 stood at 846 ng/µL, the Enzyme Activity Endpoint Assay (purified): Fc was 215 ng/µL, the Enzyme Activity Endpoint Assay (purified): IgG was found to be 0 ng/µL and the Enzyme Activity Endpoint Assay (purified): scIgG was determined as 0 ng/µL.
